Two molecules from US20110021367A1 (INDIAN INSTITUTE OF SCIENCE, published 2011) can be followed below.

Sequences and labels used below:
B1: σ^L 1-177 (Mycobacterium tuberculosis sigma factor L, Rv0735), N-term His-tag (other)
chain: MARVSGAAAAEAALMRALYDEHAAVLWRYALRLTGDAAQAEDVVQETLLRAWQHPEVIGDTARPARAWLFTVARNMIIDERRSARFRNVVGSTDQSGTPEQSTPDEVNAALDRLLIADALAQLSAEHRAVIQRSYYRGWSTAQIATDLGIAEGTVKSRLHYAVRALRLTLQELGVTR
notes: range 1-177; also called SigL; Mtb σ^L; not shown: N-terminal His-tag from pET-Duet1 MCS1
B2: apo-RslA 1-108 (Zn2+ free, oxidized N-terminal domain of M. tuberculosis RslA), N-term His-tag (other)
chain: MTMPLRGLGPPDDTGVREVSTGDDHHYAMWDAAYVLGALSAADRREFEAHLAGCPECRGAVTELCGVPALLSQLDRDEVAAISESAPTVVASGLSPELLPSLLAAVHR
modifications: Zn2+ removed with H2O2 and TPEN; oxidized, one disulfide bond
notes: range 1-108; Same polypeptide as holo-RslA; for SPR made on the chip by passing 10 mM H2O2 and 2 mM TPEN over immobilized RslA; also called Zn^2+ free RslA; oxidized RslA; not shown: N-terminal His-tag from pET-Duet1 MCS1

Data set [1] addresses B2. The experiment in a line: SPR (BIACORE 2000), immobilized RslA freed of Zn2+ with H2O2/TPEN, σ^L as analyte.
Data set [2] concerns the molecule itself. The experiment in a line: analytical gel filtration; dynamic light scattering. For orientation: Size exclusion chromatography separates by hydrodynamic size, large species first.
Data set [3] concerns the target B1. The experiment in a line: SPR (BIACORE 2000), immobilized RslA freed of Zn2+ with H2O2/TPEN, σ^L as analyte.

As for B1, the “fold reduction in affinity against Zn2+ bound RslA” value in data set [1] was 7 fold.

One may read the Kd as the concentration at which binding is half-saturated. A higher Kd goes with lower affinity. In the case of B2, the binding result in data set [2] is “binds”. In data set [3], the Kd was roughly 150 nM.
